Data taken from patent US20240342244A1, “Isthmin Protein Therapeutics for the Treatment of Non-Alcoholic Fatty Liver Disease” (The Board of Trustees of the Leland Stanford Junior …, priority 2021, published 2024).

Tested on: DIO mice
Assay: Therapeutic ISM1, Metformin or combined administration for 21 days in DIO mice
Type: in vivo, mouse
Conditions: daily for 21 days; compared with vehicle
Method: Therapeutic ISM1 recombinant protein administration in vivo. All pharmacologic studies using recombinant ISM1 protein were performed in mice with established diet-induced obesity or non-alcoholic fatty liver disease (NAFLD). For all experiments, male C57BL/6J mice purchased from Jax were fed either a high-fat diet (#D12492, Research Diets) or a NAFLD diet (#D09100310, Research Diets) prior to ISM1 protein injections. In all experiments, mice were mock injected with saline for three days prior to protein or drug injections to prevent stress-induced weight loss. Mice were I.P. injected with vehicle (saline) or indicated doses of ISM1 protein diluted in saline. For the 14-day experiments in NAFLD mice, 7-weeks old mice were fed with NAFLD diet for 3 weeks and then mock injected with saline for 3 days prior to protein injections. The induction of lipid accumulation with NAFLD diet was verified by the significant increase in hepatic lipid levels compared with mice on chow diet at the same time point. NAFLD mice were then daily I.P. injected with either vehicle (saline containing 5% DMSO and 10% Kolliphor) or indicated doses of ISM1 protein (500 μg/kg or 5 mg/kg) or with FXR agonist (30 mg/kg, GW4064, Sigma-Aldrich, #G5172) diluted in vehicle (saline containing 5% DMSO and 10% Kolliphor). For the 21-day experiments in HFD mice, mice were mock injected with saline for three days prior to protein injections. Mice were then daily I.P. injected with either vehicle (saline) or 5 mg/kg of ISM1 protein diluted in saline. Metformin (100 mg/kg, Sigma, #317240) was diluted in saline and daily administered by oral gavage. All groups received control injections by I.P. and oral gavage. At the end of the experiments, mice and tissue weights were recorded. Tissues and plasma were collected and frozen for further analyses.
Glucose tolerance and insulin tolerance tests. For glucose tolerance tests, mice were fasted overnight and I.P. injected with glucose at 2 g/kg body weight. Blood glucose levels were measured at 0, 15, 30, 45, 60, 90 and 120 mins. For insulin tolerance tests, mice were fasted for 2 h, and I.P. injected with 0.75 U/kg insulin. Blood glucose levels were measured at 0, 15, 30, 45, 60, 90 and 120 mins.

B1: ISM1: recombinant mouse ISM1 protein with a C-terminal myc-his tag generated in mammalian HEK 293 Expi cells (protein, UniProt A2ATD1 30-454, looked up)
Isthmin-1: SDRQDAAAGNNNLNLESDSTSETSFPLSKEAPEEHQVVHQPFPRQRFPPETGHPSLQRDGPRSFLLDLPNFPDLSKADINGQNPNIQVTIEVVDGPDSEAEKDQHPENKPSWSLPAPDWRAWWQRSLSLARTNSGDQDDKYDSTSDDSNFLSVPRGWDRPAPGHRTFETKEQPEYDSTDGEGDWSLWSVCSVTCGNGNQKRTRSCGYACIATESRTCDRPNCPGIEDTFRTAATEVSLLAGSEEFNATKLFEVDMDSCERWMSCKSEFLKKYMHKVINDLPSCPCSYPTEVAYSTADIFDRIKRKDFRWKDASGPKEKLEIYKPTARYCIRSMLSLESTTLAAQHCCYGDNMQLITRGKGAGTPNLISTEFSAELHYKVDVLPWIICKGDWSRYNEARPPNNGQKCTESPSDEDYIKQFQEAREY
modifications: C-terminal myc-His tag
notes: recombinant mouse ISM1 protein with a C-terminal myc-his tag generated in mammalian HEK 293 Expi cells
fasting blood glucose: lower | glucose tolerance (GTT): comparable effects on improving glucose tolerance
